Test results as given in patent US20100166741A1 (Genentech, published 2010).

T1: mouse FcγRIII extracellular domain, His-tagged GST fusion (mouse, UniProt P08508 31-215)
T1 construct: extracellular domain; also called Mouse III; not shown: His tag and GST
T1 sequence (looked up): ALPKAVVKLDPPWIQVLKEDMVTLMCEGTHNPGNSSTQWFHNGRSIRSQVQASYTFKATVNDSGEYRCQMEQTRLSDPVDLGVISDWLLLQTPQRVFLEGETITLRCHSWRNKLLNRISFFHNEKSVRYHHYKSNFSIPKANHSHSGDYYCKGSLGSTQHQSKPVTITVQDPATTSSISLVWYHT

T2: mouse FcγRI extracellular domain, His-tagged GST fusion (mouse, UniProt P26151 25-297)
T2 construct: extracellular domain; also called Mouse I; mFcγRI; not shown: His tag and GST
T2 sequence (looked up): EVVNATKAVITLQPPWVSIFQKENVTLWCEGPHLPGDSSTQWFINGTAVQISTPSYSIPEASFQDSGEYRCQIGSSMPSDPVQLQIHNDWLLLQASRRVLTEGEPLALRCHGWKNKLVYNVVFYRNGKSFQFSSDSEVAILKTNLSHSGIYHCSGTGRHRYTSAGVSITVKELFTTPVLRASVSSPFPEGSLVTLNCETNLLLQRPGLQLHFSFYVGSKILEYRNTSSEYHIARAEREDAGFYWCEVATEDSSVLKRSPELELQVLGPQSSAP

T3: mouse FcγRII extracellular domain, His-tagged GST fusion (mouse, UniProt P08101 30-210)
T3 construct: extracellular domain; also called Mouse II; not shown: His tag and GST
T3 sequence (looked up): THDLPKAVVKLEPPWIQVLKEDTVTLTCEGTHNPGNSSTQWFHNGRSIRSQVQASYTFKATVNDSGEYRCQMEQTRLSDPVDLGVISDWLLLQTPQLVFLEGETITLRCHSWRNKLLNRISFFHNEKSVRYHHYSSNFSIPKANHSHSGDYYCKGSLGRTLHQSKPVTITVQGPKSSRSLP

T4: human FcγRIIa extracellular domain, His-tagged GST fusion (human, UniProt P12318 34-217)
T4 construct: extracellular domain; also called hFcgRIIa; CD32A; not shown: C-terminal Gly/His6/GST tag
T4 sequence (looked up): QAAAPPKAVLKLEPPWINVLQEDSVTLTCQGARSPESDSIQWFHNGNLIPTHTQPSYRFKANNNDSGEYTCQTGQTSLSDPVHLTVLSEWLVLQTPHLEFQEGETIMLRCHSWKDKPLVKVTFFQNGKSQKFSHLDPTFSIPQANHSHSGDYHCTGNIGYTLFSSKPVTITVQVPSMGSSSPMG

T5: human FcγRIIb extracellular domain, His-tagged GST fusion (human, UniProt P31994 43-217)
T5 construct: extracellular domain; also called hFcgRIIb; CD32B; not shown: C-terminal Gly/His6/GST tag
T5 sequence (looked up): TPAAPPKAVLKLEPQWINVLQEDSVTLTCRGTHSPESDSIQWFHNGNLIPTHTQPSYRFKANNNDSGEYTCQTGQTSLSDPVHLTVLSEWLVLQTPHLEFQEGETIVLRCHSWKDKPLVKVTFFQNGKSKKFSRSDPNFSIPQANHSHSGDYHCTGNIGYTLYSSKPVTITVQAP

B1: V3(5) (antibody, human IgG1, kappa)
heavy chain: EVQLVESGGGLVQPGGSLRLSCAASGFTISSSSIHWVRQAPGKGLEWVAWVLPSVGFTDYADSVKGRFTISADTSKNTAYLQMNSLRAEDTAVYYCARRVCYNRLGVCAGGMDYWGQGTLVTVSSASTKGPSVFPLAPSSKSTSGGTAALGCLVKDYFPEPVTVSWNSGALTSGVHTFPAVLQSSGLYSLSSVVTVPSSSLGTQTYICNVNHKPSNTKVDKKVEPKSCDKTHTCPPCPAPELLGGPSVFLFPPKPKDTLMISRTPEVTCVVVDVSHEDPEVKFNWYVDGVEVHNAKTKPREEQYNATYRVVSVLTVLHQDWLNGKEYKCKVSNAALPAPIAATISKAKGQPREPQVYTLPPSREEMTKNQVSLTCLVKGFYPSDIAVEWESNGQPENNYKTTPPVLDSDGSFFLYSKLTVDKSRWQQGNVFSCSVMHEALHNHYTQKSLSLSPG
light chain: DIQMTQSPSSLSASVGDRVTITCRASQDVSTAVAWYQQKPGKAPKLLIYSASFLYSGVPSRFSGSGSGTDFTLTISSLQPEDFATYYCQQSQISPPTFGQGTKVEIKRTVAAPSVFIFPPSDEQLKSGTASVVCLLNNFYPREAKVQWKVDNALQSGNSQESVTEQDSKDSTYSLSSTLTLSKADYEKHKVYACEVTHQGLSSPVTKSFNRGEC
notes: also called V3-46s S298A/K326A/E333A/K334A
B2: V3-46s IgG (antibody)
heavy: not shown
light: DIQMTQSPSSLSASVGDRVTITCRASQDVSTAVAWYQQKPGKAPKLLIYSASFLYSGVPSRFSGSGSGTDFTLTISSLQPEDFATYYCQQSQISPPTFGQGTKVEIKRTVAAPSVFIFPPSDEQLKSGTASVVCLLNNFYPREAKVQWKVDNALQSGNSQESVTEQDSKDSTYSLSSTLTLSKADYEKHKVYACEVTHQGLSSPVTKSFNRGEC
notes: also called HV3-46S; HV3-46S-Bulk

Tests used:
[1] = biological target: T1, mouse FcγRIII extracellular domain, …; assay: Fcγ receptor ELISA; bar = fold change in binding relative to Herceptin (EC50 Herceptin/EC50 sample), log axis 0.1-100
Method: (§1) Binding of the variant antibodies to Fcγ receptors was evaluated using an ELISA-based assay. […] Dilutions of the variant antibodies were added and allowed to bind followed by washing of the wells to remove unbound antibody. […] Bound antibody was detected with an HRP-coupled, Fab′2 fragment of a goat anti-huFab′2 antibody.

[2] = biological target: T6, human FcγRI extracellular domain, His-tagged GST fusion (human, UniProt P12314 16-292); assay: as above
T6 construct: extracellular domain; also called hFcgRI; FcγRIA; not shown: C-terminal Gly/His6/GST tag

[3] = biological target: T2, mouse FcγRI extracellular domain, …; assay: as above
Method: as §1

[4] = biological target: T3, mouse FcγRII extracellular domain, …; assay: as above
Method: as §1

[5] = biological target: T7, human FcγRIIIa (F158) extracellular domain, His-tagged GST fusion (human, UniProt P08637 17-208); assay: as above
T7 construct: extracellular domain; also called hFcgRIII (F158); FcγRIII (F158 allele); not shown: C-terminal Gly/His6/GST tag
T7 sequence (P08637 17-208): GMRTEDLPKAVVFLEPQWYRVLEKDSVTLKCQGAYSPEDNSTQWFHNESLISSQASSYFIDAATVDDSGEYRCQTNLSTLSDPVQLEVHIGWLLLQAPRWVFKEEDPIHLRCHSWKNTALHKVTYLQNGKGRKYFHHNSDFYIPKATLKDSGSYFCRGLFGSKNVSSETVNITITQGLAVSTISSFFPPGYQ

[6] = biological target: T4, human FcγRIIa extracellular domain, …; assay: ELISA, captured FcγR-GST, multimeric IgG
Method: (§2) FcγRs were expressed as recombinant fusion proteins of the extracellular domain of the receptor alpha chains with gly/his6/glutathione-s-transferase (GST). Assay plates coated with anti-GST and blocked with BSA were used to capture each FcγR. Plates were washed with wash buffer (0.05% polysorbate 20 in PBS, pH 7.4) after each incubation. […] Bound antibody was detected with the horseradish peroxidase (HRP)-conjugated F(ab′)2 fragment of a goat anti-human IgG F(ab′)₂ (Jackson ImmunoResearch; West Grove, Pa.). Plates were developed with tetramethylbenzidine (TMB) (KPL, Inc.; Gaithersburg, Md.) as the substrate. Absorbance was measured at a wavelength of 450 nm with a reference of 650 nm. Mean absorbance values from duplicate wells were plotted as a function of antibody concentration. Data were fit to a four-parameter equation to determine the concentration that yields 50% of maximum binding to each FcγR (EC₅₀) for each antibody.

[7] = biological target: T5, human FcγRIIb extracellular domain, …; assay: ELISA, captured FcγR-GST, multimeric IgG
Method: as §2

[8] = biological target: T8, human FcγRIIIa (V158) extracellular domain, His-tagged GST fusion (human, UniProt P08637 17-208); assay: ELISA, captured FcγR-GST, multimeric IgG
T8 construct: extracellular domain; also called hFcgRIII (V158); FcγRIII (V158 allele); not shown: C-terminal Gly/His6/GST tag
T8 sequence (P08637 17-208 F176V): as the sequence (P08637 17-208) above, with F160V counted along it

[9] = biological target: T7, human FcγRIIIa (F158) extracellular …; assay: ELISA, captured FcγR-GST, multimeric IgG
Method: as §2

[10] = biological target: T6, human FcγRI extracellular domain, …; assay: ELISA, captured FcγR-GST, monomeric IgG
Method: as §2

binding result [1]	binding result [2]	binding result [3]	binding result [4]	binding result [5]	EC50 [6] [µg/mL]	EC50 [7] [µg/mL]	EC50 [8] [µg/mL]	EC50 [9] [µg/mL]	EC50 [10] [µg/mL]	Binder
binds	binds	binds	binds	binds						B1
binds		binds	binds		0.3	1.02	0.28	1.52	0.00158	B2
